Data published in the supplement of paper PMC11316812.
± gives the standard deviation of the averaged measurements.

How the values were obtained:
hTERT-HMEC = assay: percentage of EdU-negative (G0-arrested) nuclei per well, 72 h; higher = more G0 arrest; details: reference: sequence is the full UniProt precursor, the tested protein was the secreted form or ectodomain
MCF7 = assay: as above; details: reference: sequence is the full UniProt precursor, the tested protein was the secreted form or ectodomain
[1] = protein concentration 0.0225 µM
[2] = protein concentration 0.019925 µM
[3] = protein concentration 0.19925 µM
[4] = protein concentration 0.020585 µM
[5] = protein concentration 0.20585 µM
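Also: secreted proteins added to cultured cells, EdU pulse at the end, nuclei found by Hoechst imaging, EdU status from nuclear versus surrounding ring intensity ratio, PBS as neutral control.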

Sequence | percentage of EdU-negative (hTERT-HMEC; [1]) [%] | percentage of EdU-negative (hTERT-HMEC; protein concentration 0.225 µM) [%] | percentage of EdU-negative (MCF7; [1]) [%] | percentage of EdU-negative (MCF7; protein concentration 0.225 µM) [%] | also measured
MAVAAAAAAAGPAGAGGGRAQRSGLLEVLVRDRWHKVLVNLSEDALVLSSEEGAAAYNGIGTATNGSFCRGAGAGHPGAGGAQPPDSPAGVRTAFTDLPEQVPESISNQKRGVKVLKQELGGLGISIKGGKENKMPILISKIFKGLAADQTQALYVGDAILSVNGADLRDATHDEAVQALKRAGKEVLLEVKYMREATPYVKKGSPVSEIGWETPPPESPRLGGSTSDPPSSQSFSFHRDRKSIPLKMCYVTRSMALADPENRQLEIHSPDAKHTVILRSKDSATAQAWFSAIHSNVNDLLTRVIAEVREQLGKTGIAGSREIRHLGWLAEKVPGESKKQWKPALVVLTEKDLLIYDSMPRRKEAWFSPVHTYPLLATRLVHSGPGKGSPQAGVDLSFATRTGTRQGIETHLFRAETSRDLSHWTRSIVQGCHNSAELIAEISTACTYKNQECRLTIHYENGFSITTEPQEGAFPKTIIQSPYEKLKMSSDDGIRMLYLDFGGKDGEIQLDLHSCPKPIVFIIHSFLSAKITRLGLVA | 4.71 ± 0.2 | 6.28 ± 0.64 | 27.8 ± 2.2 | 25.6 ± 0.97 | –
MAVFKTTLWRLISGTLGIICLSLMSTLGILLKNSFTKLSIEPAFTPGPNIELQKDSDCCSCQEKWVGYRCNCYFISSEQKTWNESRHLCASQKSSLLQLQNTDELDFMSSSQQFYWIGLSYSEEHTAWLWENGSALSQYLFPSFETFNTKNCIAYNPNGNALDESCEDKNRYICKQQLI | 4.98 ± 0.64 | 5.53 ± 0.17 | 26.6 ± 3 | 25.3 ± 3.1 | –
MAVGKFLLGSLLLLSLQLGQGWGPDARGVPVADGEFSSEQVAKAGGTWLGTHRPLARLRRALSGPCQLWSLTLSVAELGLGYASEEKVIFRYCAGSCPRGARTQHGLALARLQGQGRAHGGPCCRPTRYTDVAFLDDRHRWQRLPQLSAAACGCGG | – | – | – | – | percentage of EdU-negative (hTERT-HMEC; [2]): 5.17 ± 0.068%; percentage of EdU-negative (hTERT-HMEC; [3]): 5.42 ± 0.64%; percentage of EdU-negative (MCF7; [2]): 27.7 ± 0.63%; percentage of EdU-negative (MCF7; [3]): 26.7 ± 3.4%
MAVKKIAIFGATGQTGLTTLAQAVQAGYEVTVLVRDSSRLPSEGPRPAHVVVGDVLQAADVDKTVAGQDAVIVLLGTRNDLSPTTVMSEGARNIVAAMKAHGVDKVVACTSAFLLWDPTKVPPRLQAVTDDHIRMHKVLRESGLKYVAVMPPHIGDQPLTGAYTVTLDGRGPSRVISKHDLGHFMLRCLTTDEYDGHSTYPSHQYQ | 5.08 ± 0.64 | 5.64 ± 0.7 | 22.7 ± 3 | 23.37 ± 0.19 | –
MAVKLGTLLLALALGLAQPASARRKLLVFLLDGFRSDYISDEALESLPGFKEIVSRGVKVDYLTPDFPSLSYPNYYTLMTGRHCEVHQMIGNYMWDPTTNKSFDIGVNKDSLMPLWWNGSEPLWVTLTKAKRKVYMYYWPGCEVEILGVRPTYCLEYKNVPTDINFANAVSDALDSFKSGRADLAAIYHERIDVEGHHYGPASPQRKDALKAVDTVLKYMTKWIQERGLQDRLNVIIFSDHGMTDIFWMDKVIELNKYISLNDLQQVKDRGPVVSLWPAPGKHSEIYNKLSTVEHMTVYEKEAIPSRFYYKKGKFVSPLTLVADEGWFITENREMLPFWMNSTGRREGWQRGWHGYDNELMDMRGIFLAFGPDFKSNFRAAPIRSVDVYNVMCNVVGITPLPNNGSWSRVMCMLKGRASTAPPVWPSHCALALILLFLLA [Q6UWR7] | 4.73 ± 0.19 | 5.87 ± 0.68 | 25.6 ± 0.4 | 27.791 ± 0.0037 | –
MAVRQWVIALALAALLVVDREVPVAAGKLPFSRMPICEHMVESPTCSQMSNLVCGTDGLTYTNECQLCLARIKTKQDIQIMKDGKC | 5.06 ± 0.67 | 4.68 ± 0.28 | 26.2 ± 1.9 | 25.8 ± 0.45 | –
MAVRRDSVWKYCWGVLMVLCRTAISKSIVLEPIYWNSSNSKFLPGQGLVLYPQIGDKLDIICPKVDSKTVGQYEYYKVYMVDKDQADRCTIKKENTPLLNCAKPDQDIKFTIKFQEFSPNLWGLEFQKNKDYYIISTSNGSLEGLDNQEGGVCQTRAMKILMKVGQDASSAGSTRNKDPTRRPELEAGTNGRSSTTSPFVKPNPGSSTDGNSAGHSGNNILGSEVALFAGIASGCIIFIVIIITLVVLLLKYRRRHRKHSPQHTTTLSLSTLATPKRSGNNNGSEPSDIIIPLRTADSVFCPHYEKVSGDYGHPVYIVQEMPPQSPANIYYKV | – | – | – | – | percentage of EdU-negative (hTERT-HMEC; [4]): 4.57 ± 1%; percentage of EdU-negative (hTERT-HMEC; [5]): 6.25 ± 0.37%; percentage of EdU-negative (MCF7; [4]): 24.9 ± 1.2%; percentage of EdU-negative (MCF7; [5]): 25.5 ± 0.9%
